Source: paper PMC9482650, “Quantitative fragmentomics allow affinity mapping of interactomes” (Nature Communications, 2022)

How the values were obtained:
Experiment in all cases: holdup assay
Set-up in all cases: key: below the threshold = too weak to quantify, mostly under pKd 3.1 to 4
USH1C_3, Q9Y6N9 = molecular target: T1, USH1C_3, Q9Y6N9
T1 sequence (Q9Y6N9 447-547, limits assumed, looked up): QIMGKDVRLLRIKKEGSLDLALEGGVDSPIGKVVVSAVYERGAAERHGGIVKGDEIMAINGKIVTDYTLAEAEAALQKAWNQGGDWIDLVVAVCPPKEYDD

MAGI1_4, Q96QZ7 = molecular target: MAGI1_4, Q96QZ7
LNX2_4, Q8N448 = molecular target: T2, LNX2_4, Q8N448
T2 sequence (Q8N448 595-690, limits assumed, looked up): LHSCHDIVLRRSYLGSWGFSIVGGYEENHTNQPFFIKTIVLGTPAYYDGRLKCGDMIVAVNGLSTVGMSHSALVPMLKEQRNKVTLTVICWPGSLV

RIMS2, Q9UQ26 = molecular target: RIMS2, Q9UQ26
PTPN4, P29074 = molecular target: T3, PTPN4, P29074
T3 sequence (P29074 512-599, limits assumed, looked up): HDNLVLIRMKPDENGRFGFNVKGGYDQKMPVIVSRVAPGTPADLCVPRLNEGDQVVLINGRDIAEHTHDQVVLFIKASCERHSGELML

DLG2_1, Q15700 = molecular target: DLG2_1, Q15700
DVL1, O14640 = molecular target: T4, DVL1, O14640
T4 sequence (O14640 246-333, limits assumed, looked up): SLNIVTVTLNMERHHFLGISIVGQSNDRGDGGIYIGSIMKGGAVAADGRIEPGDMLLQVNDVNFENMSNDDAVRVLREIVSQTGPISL

Inadl_7, Q8NI35 = molecular target: Inadl_7, Q8NI35
PDZD2_3, O15018 = molecular target: T5, PDZD2_3, O15018
T5 sequence (O15018 581-682, limits assumed, looked up): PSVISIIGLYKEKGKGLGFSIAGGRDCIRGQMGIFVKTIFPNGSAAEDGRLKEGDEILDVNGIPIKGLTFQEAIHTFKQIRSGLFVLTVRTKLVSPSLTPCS

MAGI3_5, Q5TCQ9 = molecular target: MAGI3_5, Q5TCQ9
PARD3B_2, Q8TEW8 = molecular target: PARD3B_2, Q8TEW8
NHERF3_2, Q5T2W1 = molecular target: T6, NHERF3_2, Q5T2W1
T6 sequence (Q5T2W1 129-225, limits assumed, looked up): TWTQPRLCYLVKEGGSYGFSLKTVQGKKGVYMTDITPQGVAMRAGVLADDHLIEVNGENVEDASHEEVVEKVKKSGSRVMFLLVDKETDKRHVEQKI

MAGI1_5, Q96QZ7 = molecular target: MAGI1_5, Q96QZ7
IL16_2, Q14005 = molecular target: IL16_2, Q14005
PARD6B, Q9BYG5 = molecular target: T7, PARD6B, Q9BYG5
T7 sequence (Q9BYG5 152-260, limits assumed, looked up): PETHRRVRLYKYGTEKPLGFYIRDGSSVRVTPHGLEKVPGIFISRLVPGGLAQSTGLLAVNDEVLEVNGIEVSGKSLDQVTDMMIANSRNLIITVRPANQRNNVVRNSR

SHANK2, Q9UPX8 = molecular target: T8, SHANK2, Q9UPX8
T8 sequence (Q9UPX8 621-730, limits assumed, looked up): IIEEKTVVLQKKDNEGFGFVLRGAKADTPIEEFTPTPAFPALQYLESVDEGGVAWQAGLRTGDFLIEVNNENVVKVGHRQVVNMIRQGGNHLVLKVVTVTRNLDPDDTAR

GIPC1, O14908 = molecular target: T9, GIPC1, O14908
T9 sequence (O14908 128-223, limits assumed, looked up): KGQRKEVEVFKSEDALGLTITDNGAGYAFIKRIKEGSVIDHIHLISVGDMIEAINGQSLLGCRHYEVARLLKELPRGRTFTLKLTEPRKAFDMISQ

GRIP1_1, Q9Y3R0 = molecular target: T10, GRIP1_1, Q9Y3R0
T10 sequence (Q9Y3R0 48-146, limits assumed, looked up): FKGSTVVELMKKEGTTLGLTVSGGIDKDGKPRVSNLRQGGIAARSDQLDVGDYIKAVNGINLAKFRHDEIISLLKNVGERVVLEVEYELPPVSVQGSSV

DLG5_2, Q8TDM6 = molecular target: DLG5_2, Q8TDM6
MLLT4, P55196 = molecular target: T11, MLLT4, P55196
T11 sequence (P55196 1002-1103, limits assumed, looked up): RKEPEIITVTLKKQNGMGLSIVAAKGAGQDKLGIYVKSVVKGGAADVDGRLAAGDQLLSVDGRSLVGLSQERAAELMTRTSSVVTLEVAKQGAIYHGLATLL

SHROOM3, Q8TF72 = molecular target: T12, SHROOM3, Q8TF72
T12 sequence (Q8TF72 20-120, limits assumed, looked up): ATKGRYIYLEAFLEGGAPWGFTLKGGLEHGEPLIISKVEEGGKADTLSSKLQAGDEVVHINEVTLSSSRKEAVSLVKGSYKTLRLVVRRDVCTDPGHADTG

SNTB2, Q13425 = molecular target: T13, SNTB2, Q13425
T13 sequence (Q13425 110-208, limits assumed, looked up): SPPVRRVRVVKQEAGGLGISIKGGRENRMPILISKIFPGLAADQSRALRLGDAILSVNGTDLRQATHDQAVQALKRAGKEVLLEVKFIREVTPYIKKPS

PDZD8, Q8NEN9 = molecular target: T14, PDZD8, Q8NEN9
T14 sequence (Q8NEN9 361-459, limits assumed, looked up): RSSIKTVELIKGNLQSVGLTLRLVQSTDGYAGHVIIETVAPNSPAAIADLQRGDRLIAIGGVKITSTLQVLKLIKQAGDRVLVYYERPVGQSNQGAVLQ

[1] = plain residues with an end cap or a label only (N-terminal biotin on a linker: none)
[2] = plain residues with an end cap or a label only (N-terminal biotin on a linker: ttds)

IL16_2, Q14005, sequence (Q14005 350-450): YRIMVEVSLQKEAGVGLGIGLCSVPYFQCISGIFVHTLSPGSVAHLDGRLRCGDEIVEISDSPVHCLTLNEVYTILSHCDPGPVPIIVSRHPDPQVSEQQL
MAGI1_5, Q96QZ7, sequence (Q96QZ7 986-1098): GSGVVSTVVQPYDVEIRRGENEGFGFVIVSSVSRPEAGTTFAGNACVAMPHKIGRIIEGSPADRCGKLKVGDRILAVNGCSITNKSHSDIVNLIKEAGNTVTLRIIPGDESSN
MAGI1_4, Q96QZ7, sequence (Q96QZ7 other isoform, or with tags, fused parts or gaps): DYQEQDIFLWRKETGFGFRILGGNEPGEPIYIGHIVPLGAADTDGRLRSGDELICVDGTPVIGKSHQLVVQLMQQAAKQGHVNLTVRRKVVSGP
MAGI3_5, Q5TCQ9, sequence (Q5TCQ9 847-941): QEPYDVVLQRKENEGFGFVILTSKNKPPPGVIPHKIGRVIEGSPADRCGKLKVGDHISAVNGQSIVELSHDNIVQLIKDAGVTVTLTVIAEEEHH
RIMS2, Q9UQ26, sequence (Q9UQ26 637-758): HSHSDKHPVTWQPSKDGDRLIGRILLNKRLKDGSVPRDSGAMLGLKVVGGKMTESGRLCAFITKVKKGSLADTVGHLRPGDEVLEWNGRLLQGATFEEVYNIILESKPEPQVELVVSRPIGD
PARD3B_2, Q8TEW8, sequence (Q8TEW8 376-471): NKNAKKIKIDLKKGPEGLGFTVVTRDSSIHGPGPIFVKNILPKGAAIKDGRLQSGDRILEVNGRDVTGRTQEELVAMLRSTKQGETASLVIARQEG
Inadl_7, Q8NI35, sequence (Q8NI35 1219-1332): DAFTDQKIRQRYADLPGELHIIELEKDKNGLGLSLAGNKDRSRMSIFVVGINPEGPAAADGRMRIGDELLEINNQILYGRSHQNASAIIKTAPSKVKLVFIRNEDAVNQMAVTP
DLG5_2, Q8TDM6, sequence (Q8TDM6 714-800): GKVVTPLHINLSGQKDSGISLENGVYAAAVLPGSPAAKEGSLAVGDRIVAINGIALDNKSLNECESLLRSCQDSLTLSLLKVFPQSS

DSKPPLPPDEWV [MERS-E, K9N5R3]
pKd (USH1C_3, Q9Y6N9; [1]): below the threshold
pKd (MAGI1_4, Q96QZ7; [1]): below the threshold
pKd (LNX2_4, Q8N448; [1]): 3.73
pKd (RIMS2, Q9UQ26; [1]): 4.39
pKd (PTPN4, P29074; [1]): below the threshold
pKd (DLG2_1, Q15700; [1]): below the threshold
pKd (DVL1, O14640; [1]): below the threshold
pKd (Inadl_7, Q8NI35; [1]): below the threshold
pKd (PDZD2_3, O15018; [1]): 3.89
pKd (MAGI3_5, Q5TCQ9; [1]): below the threshold
pKd (PARD3B_2, Q8TEW8; [1]): below the threshold
pKd (NHERF3_2, Q5T2W1; [1]): below the threshold
pKd (MAGI1_5, Q96QZ7; [1]): below the threshold
pKd (IL16_2, Q14005; [1]): below the threshold
pKd (PARD6B, Q9BYG5; [1]): below the threshold
pKd (SHANK2, Q9UPX8; [1]): below the threshold
pKd (GIPC1, O14908; [1]): below the threshold
pKd (GRIP1_1, Q9Y3R0; [1]): below the threshold
pKd (DLG5_2, Q8TDM6; [1]): 4
pKd (MLLT4, P55196; [1]): below the threshold
pKd (SHROOM3, Q8TF72; [1]): below the threshold
pKd (SNTB2, Q13425; [1]): below the threshold
pKd (PDZD8, Q8NEN9; [1]): below the threshold

IQREDQETAV [DGKZ, Q13574]
pKd (USH1C_3, Q9Y6N9; [2]): below the threshold
pKd (MAGI1_4, Q96QZ7; [2]): below the threshold
pKd (LNX2_4, Q8N448; [2]): below the threshold
pKd (RIMS2, Q9UQ26; [2]): below the threshold
pKd (PTPN4, P29074; [2]): 4.8
pKd (DLG2_1, Q15700; [2]): 4.71
pKd (DVL1, O14640; [2]): below the threshold
pKd (Inadl_7, Q8NI35; [2]): below the threshold
pKd (PDZD2_3, O15018; [2]): below the threshold
pKd (MAGI3_5, Q5TCQ9; [2]): 4.51
pKd (PARD3B_2, Q8TEW8; [2]): below the threshold
pKd (NHERF3_2, Q5T2W1; [2]): below the threshold
pKd (MAGI1_5, Q96QZ7; [2]): 5.06
pKd (IL16_2, Q14005; [2]): below the threshold
pKd (PARD6B, Q9BYG5; [2]): below the threshold
pKd (SHANK2, Q9UPX8; [2]): below the threshold
pKd (GIPC1, O14908; [2]): 4.92
pKd (GRIP1_1, Q9Y3R0; [2]): below the threshold
pKd (DLG5_2, Q8TDM6; [2]): below the threshold
pKd (MLLT4, P55196; [2]): below the threshold
pKd (SHROOM3, Q8TF72; [2]): below the threshold
pKd (SNTB2, Q13425; [2]): 5.16
pKd (PDZD8, Q8NEN9; [2]): below the threshold

NYWPGKETQL [SLCO1C1, Q9NYB5]
pKd (USH1C_3, Q9Y6N9; [2]): below the threshold
pKd (MAGI1_4, Q96QZ7; [2]): below the threshold
pKd (LNX2_4, Q8N448; [2]): 4.73
pKd (RIMS2, Q9UQ26; [2]): below the threshold
pKd (PTPN4, P29074; [2]): 4.91
pKd (DLG2_1, Q15700; [2]): below the threshold
pKd (DVL1, O14640; [2]): below the threshold
pKd (Inadl_7, Q8NI35; [2]): below the threshold
pKd (PDZD2_3, O15018; [2]): below the threshold
pKd (MAGI3_5, Q5TCQ9; [2]): below the threshold
pKd (PARD3B_2, Q8TEW8; [2]): below the threshold
pKd (NHERF3_2, Q5T2W1; [2]): below the threshold
pKd (MAGI1_5, Q96QZ7; [2]): 4.47
pKd (IL16_2, Q14005; [2]): below the threshold
pKd (PARD6B, Q9BYG5; [2]): below the threshold
pKd (SHANK2, Q9UPX8; [2]): 4.64
pKd (GIPC1, O14908; [2]): below the threshold
pKd (GRIP1_1, Q9Y3R0; [2]): below the threshold
pKd (DLG5_2, Q8TDM6; [2]): below the threshold
pKd (MLLT4, P55196; [2]): below the threshold
pKd (SHROOM3, Q8TF72; [2]): below the threshold
pKd (SNTB2, Q13425; [2]): 5.13
pKd (PDZD8, Q8NEN9; [2]): below the threshold
